# “And” between values parts separate entries of the source, which are not always exact repeats. Equal entries are not always repeated. Where two headings read alike, the source gives them in different places.
# T1: ΔN-HSPB6 (residues 65-160) (human, UniProt O14558 65-160)
# T1 sequence: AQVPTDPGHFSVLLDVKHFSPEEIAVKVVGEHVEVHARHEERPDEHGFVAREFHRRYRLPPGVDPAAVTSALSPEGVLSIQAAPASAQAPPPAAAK
# T2: Alpha-B-crystallin CTR CTR (Homo sapiens, UniProt P02511)
# T2 chain: ERTIPITRE
# T3: E117C-HSPB5, full length (oligomeric) (human, UniProt P02511 1-175, E117C)
# T3 sequence: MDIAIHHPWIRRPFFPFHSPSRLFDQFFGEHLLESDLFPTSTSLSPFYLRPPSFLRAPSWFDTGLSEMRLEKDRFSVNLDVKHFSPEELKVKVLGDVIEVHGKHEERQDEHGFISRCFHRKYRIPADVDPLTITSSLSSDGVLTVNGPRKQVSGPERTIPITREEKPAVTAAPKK
# T4: S135Q/E117C full-length HSPB5 oligomer (human, UniProt P02511 1-175, E117C | S135Q)
# T4 sequence: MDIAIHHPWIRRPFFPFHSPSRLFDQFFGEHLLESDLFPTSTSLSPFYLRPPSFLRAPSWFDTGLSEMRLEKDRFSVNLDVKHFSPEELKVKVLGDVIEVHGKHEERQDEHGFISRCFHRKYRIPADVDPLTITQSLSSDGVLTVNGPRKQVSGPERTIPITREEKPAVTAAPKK
# B1: S135Q-HSPB5, full-length oligomer (natural protein)
# chain: MDIAIHHPWIRRPFFPFHSPSRLFDQFFGEHLLESDLFPTSTSLSPFYLRPPSFLRAPSWFDTGLSEMRLEKDRFSVNLDVKHFSPEELKVKVLGDVIEVHGKHEERQDEHGFISREFHRKYRIPADVDPLTITQSLSSDGVLTVNGPRKQVSGPERTIPITREEKPAVTAAPKK
# How the values were obtained:
# [1] = target: B1; test: SEC
# SEC = target: the molecule itself; test: SEC
# [2] = target: T1, ΔN-HSPB6 (residues 65-160); test: NMR titration
# [3] = target: the molecule itself
# [4] = target: T2, Alpha-B-crystallin CTR CTR
# [5] = target: B1; test: SEC; remark: listed apart in the source
# [6] = target: T3, E117C-HSPB5, full length (oligomeric); test: cross-linking
# [7] = target: T4, S135Q/E117C full-length HSPB5 oligomer; test: cross-linking
binder,measurement,setting,value
"HSPB6, full length, C46S (natural protein) MEIPVPVQPSWLRRASAPLPGLSAPGRLFDQRFGEGLLEAELAALSPTTLAPYYLRAPSVALPVAQVPTDPGHFSVLLDVKHFSPEEIAVKVVGEHVEVHARHEERPDEHGFVAREFHRRYRLPPGVDPAAVTSALSPEGVLSIQAAPASAQAPPPAAAK",binding result,[1],binds
same,stoichiometry N,SEC,2 and 4
PERTIPITREEK [HSPB5-CTR peptide PERTIPITREEK],binding result,[2],binds
B1,binding result,SEC,binds
Alpha-B-crystallin ACD ACD (protein) GLSEMRLEKDRFSVNLDVKHFSPEELKVKVLGDVIEVHGKHEERQDEHGFISREFHRKYRIPADVDPLTITSSLSSDGVLTVNGPRKQV,Kd,[3],~2 µM
same,Kd,[4],~100 µM
same,binding result,[5],binds
"E117C-ACD-only (HSPB5 residues 64-152, E117C) (domain or fragment, disulfide-locked dimer through C117 under nonreducing conditions) GLSEMRLEKDRFSVNLDVKHFSPEELKVKVLGDVIEVHGKHEERQDEHGFISRCFHRKYRIPADVDPLTITSSLSSDGVLTVNGPRKQV",binding result,[6],binds
same,binding result,[7],binds

# — paper PMC4512712 (Biochemistry, 2015)
